This test has as its target HLA-B*07 (Homo sapiens, UniProt P01889). Nature of the test: MHC binding assay (UV-ligand exchange, ELISA of stabilized MHC complexes). The note with it: peptide exchange yield on HLA-B*07, UV-ligand exchange. In short, it runs like this:
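Binding is reported as exchange yield: an ELISA with HRP-conjugated anti-β2m (A450, TMB) quantified how much test peptide stabilized MHC after UV cleavage of a photolabile placeholder peptide. Exchange monomers were diluted 100-fold and captured on streptavidin-coated plates for 1 h at 37 °C.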
For “254 (RVIQGTTTL; listed as Homo sapiens) [compound 254]”, the Peptide exchange entry is reported as “++++ (>75% = ++++)”.
Regarding “456 (VPVSHPVLTL; listed as Homo sapiens) [compound 456]”, the Peptide exchange entry is listed as “+++ (>50 = +++)”.
With “484 (LPASAEPKGTM; listed as Homo sapiens) [compound 484]”, the Peptide exchange entry was “++ (>20% = ++)”.
“380 (SPYPGSAAF; listed as Homo sapiens) [compound 380]”: the Peptide exchange entry is “++++ (>75% = ++++)”.
On to “490 (APRGPAQGEAA; listed as Homo sapiens) [compound 490]”, for which the Peptide exchange entry was “++++ (>75% = ++++)”.
As for “465 (VPKSLPYVL; listed as Homo sapiens) [compound 465]”, the entry is “++++ (>75% = ++++)”.
As for “92 (TSPLPPTV; listed as Homo sapiens) [compound 92]”, the entry is “+++ (>50 = +++)”.
Turning to “36 (RPFSREMDL; listed as Homo sapiens) [compound 36]”, the Peptide exchange result is recorded as “+++ (>50 = +++)”.
For the substance “314 (IALMKLAGPL; listed as Homo sapiens) [compound 314]”, the Peptide exchange result is listed as “++ (>20% = ++)”.
With “220 (RPAPGPAPFV; listed as Homo sapiens) [compound 220]”, the Peptide exchange result was “+++ (>50 = +++)”.
Take “105 (RPRYETGVCA; listed as Homo sapiens) [compound 105]”: the Peptide exchange entry is given as “++++ (>75% = ++++)”.
For the substance “363 (KPRTPFTTA; listed as Homo sapiens) [compound 363]”, the Peptide exchange result is “++++ (>75% = ++++)”.
For “457 (RPPLSQRHTF; listed as Homo sapiens) [compound 457]”, the Peptide exchange result was “++++ (>75% = ++++)”.
Consider “473 (LPGEREAAL; listed as Homo sapiens) [compound 473]”, for which the Peptide exchange entry was “++++ (>75% = ++++)”.
With “130 (GAYDKARYL; listed as Homo sapiens) [compound 130]”, the Peptide exchange result is reported as “++ (>20% = ++)”.
With “452 (QPVKKNTL; listed as Homo sapiens) [compound 452]”, the Peptide exchange result was “++++ (>75% = ++++)”.
On to “239 (VLPRAGGAFLM; listed as Homo sapiens) [compound 239]”, for which the Peptide exchange result is recorded as “+++ (>50 = +++)”.
With “95 (RTKEEINEL; listed as Homo sapiens) [compound 95]”, the Peptide exchange entry is “++ (>20% = ++)”.
Regarding “8 (MPKTNLSKM; listed as Homo sapiens) [compound 8]”, the Peptide exchange entry is “+++ (>50 = +++)”.
For “209 (KIEQIRAVL; listed as Homo sapiens) [compound 209]” the value was “+++ (>50 = +++)”; for “185 (RPVLTASSF; listed as Homo sapiens) [compound 185]”, “++++ (>75% = ++++)”.
For “374 (KPRNMTGLDL; listed as Homo sapiens) [compound 374]” the value was “++++ (>75% = ++++)”; for “369 (RPYGCVLRAA; listed as Homo sapiens) [compound 369]”, “++++ (>75% = ++++)”.
As for “73 (LPVSSPVTL; listed as Homo sapiens) [compound 73]”, the Peptide exchange entry was “++++ (>75% = ++++)”.
With “371 (APRSPGQVTPRGL; listed as Homo sapiens) [compound 371]”, the Peptide exchange result was “+++ (>50 = +++)”.
Consider “269 (FTVSSSSAM; listed as Homo sapiens) [compound 269]”, for which the Peptide exchange result was “++ (>20% = ++)”.
For “46 (QPISGNPVTL; listed as Homo sapiens) [compound 46]”, the Peptide exchange entry was “+++ (>50 = +++)”.
As for “34 (APMAPGRSP; listed as Homo sapiens) [compound 34]”, the entry is “+++ (>50 = +++)”; as for “305 (AASPVGSAL; listed as Homo sapiens) [compound 305]”, “+++ (>50 = +++)”.
Regarding “11 (APLPRPGAV; listed as Homo sapiens) [compound 11]”, the Peptide exchange entry is recorded as “++++ (>75% = ++++)”.
As for “213 (RPYQDAPVA; listed as Homo sapiens) [compound 213]”, the entry is “++++ (>75% = ++++)”; as for “227 (RPGTGQGGL; listed as Homo sapiens) [compound 227]”, “+++ (>50 = +++)”; as for “266 (KPYEGRVEI; listed as Homo sapiens) [compound 266]”, “++++ (>75% = ++++)”.
On to “491 (MPEADLKRIF; listed as Homo sapiens) [compound 491]”, for which the Peptide exchange entry was “++ (>20% = ++)”.
“342 (RPRPPKVL; listed as Homo sapiens) [compound 342]”: the Peptide exchange entry is “+++ (>50 = +++)”.
On to “488 (LPLGGLPLLI; listed as Homo sapiens) [compound 488]”, for which the Peptide exchange entry is on record as “+++ (>50 = +++)”.
On to “74 (VPVSHPVL; listed as Homo sapiens) [compound 74]”, for which the Peptide exchange entry is recorded as “++++ (>75% = ++++)”.
For “359 (SPRRLVELAGQSL; listed as Homo sapiens) [compound 359]” the value was “++++ (>75% = ++++)”.
For “477 (NPVPVITWYKDNRL; listed as Homo sapiens) [compound 477]”, the Peptide exchange entry is on record as “++++ (>75% = ++++)”.
As for “79 (GPASDHPSL; listed as Homo sapiens) [compound 79]”, the entry is “+++ (>50 = +++)”; as for “344 (VPYPSPTCV; listed as Homo sapiens) [compound 344]”, “++++ (>75% = ++++)”.
For “10 (SPMEAELVRRIL; listed as Homo sapiens) [compound 10]” the value was “++++ (>75% = ++++)”; for “223 (KAHVRIEL; listed as Homo sapiens) [compound 223]”, “++ (>20% = ++)”; for “474 (VPKADLLTL; listed as Homo sapiens) [compound 474]”, “++++ (>75% = ++++)”.
Turning to “383 (KPRATWTLKL; listed as Homo sapiens) [compound 383]”, the Peptide exchange entry was “+++ (>50 = +++)”.
As for “358 (APSMLRKNQL; listed as Homo sapiens) [compound 358]”, the entry is “+++ (>50 = +++)”; as for “207 (VPSDITTAF; listed as Homo sapiens) [compound 207]”, “+++ (>50 = +++)”; as for “86 (ALLLRGVTL; listed as Homo sapiens) [compound 86]”, “++ (>20% = ++)”.
For “139 (LVILQHQAM; listed as Homo sapiens) [compound 139]”, the Peptide exchange entry was “+++ (>50 = +++)”.
Consider “497 (YVVKPLHPF; listed as Homo sapiens) [compound 497]”, for which the Peptide exchange result is on record as “+++ (>50 = +++)”.
As for “110 (YPSSPASAV; listed as Homo sapiens) [compound 110]”, the entry is “++++ (>75% = ++++)”.
For “168 (SPSGQRDVSL; listed as Homo sapiens) [compound 168]”, the Peptide exchange entry was “++++ (>75% = ++++)”.
As to “157 (RPVTGSVC; listed as Homo sapiens) [compound 157]”, the Peptide exchange entry is listed as “++++ (>75% = ++++)”.
For the substance “35 (APLPPPRAL; listed as Homo sapiens) [compound 35]”, the Peptide exchange result is listed as “+++ (>50 = +++)”.
For “288 (LHAMNSLSAM; listed as Homo sapiens) [compound 288]”, the Peptide exchange result is listed as “+++ (>50 = +++)”.
As for “454 (SPDPAHLESL; listed as Homo sapiens) [compound 454]”, the entry is “++++ (>75% = ++++)”; as for “154 (RPPPSRRAVL; listed as Homo sapiens) [compound 154]”, “+++ (>50 = +++)”; as for “329 (QPANFIVLL; listed as Homo sapiens) [compound 329]”, “+++ (>50 = +++)”.
On to “119 (KATEYVHSL; listed as Homo sapiens) [compound 119]”, for which the Peptide exchange result is on record as “+ (>10% = +)”.
“147 (HVAQPAVVL; listed as Homo sapiens) [compound 147]”: the Peptide exchange result was “+++ (>50 = +++)”.
“350 (RPKSTLMNF; listed as Homo sapiens) [compound 350]”: the Peptide exchange result was “++++ (>75% = ++++)”.
As to “348 (HPAPPVTSA; listed as Homo sapiens) [compound 348]”, the Peptide exchange entry was “+++ (>50 = +++)”.
As for “352 (LPAFSKIGGIL; listed as Homo sapiens) [compound 352]”, the entry is “++++ (>75% = ++++)”; as for “301 (FPAFLEAM; listed as Homo sapiens) [compound 301]”, “+++ (>50 = +++)”.
Turning to “91 (FPRLVGPDFF; listed as Homo sapiens) [compound 91]”, the Peptide exchange entry is on record as “++++ (>75% = ++++)”.
For the substance “468 (LPSLHVLVL; listed as Homo sapiens) [compound 468]”, the Peptide exchange result is recorded as “++++ (>75% = ++++)”.
For “63 (FPHMATTAF; listed as Homo sapiens) [compound 63]” the value was “+++ (>50 = +++)”; for “487 (IPWFIKTAF; listed as Homo sapiens) [compound 487]”, “++++ (>75% = ++++)”; for “104 (RPLPNSVIHV; listed as Homo sapiens) [compound 104]”, “+++ (>50 = +++)”.
Regarding “118 (NPERHKPSF; listed as Homo sapiens) [compound 118]”, the Peptide exchange entry is listed as “+++ (>50 = +++)”.
“121 (GPFQRAAL; listed as Homo sapiens) [compound 121]”: the Peptide exchange entry is listed as “+++ (>50 = +++)”.
For “199 (SPFWIHQA; listed as Homo sapiens) [compound 199]”, the Peptide exchange entry is “++ (>20% = ++)”.
For “120 (TVRPKNAAL; listed as Homo sapiens) [compound 120]”, the Peptide exchange result is recorded as “+++ (>50 = +++)”.

The values above are taken from patent US20220289816A1, “IMMUNOTHERAPY WITH B*07 RESTRICTED PEPTIDES AND COMBINATION OF PEPTIDES AGAINST CANCERS AND RELATED METHODS” (Immatics Biotechnologies GmbH, priority 2018, published 2022).
